The values that follow come from the nanobody polyreactivity screen of Harvey et al. (2022).

This data set in a line: yeast display, Sf9 membrane polyspecificity reagent, FACS + sequencing; frameworks hold sequencing errors. In outline:
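Synthetic nanobody libraries on Saccharomyces cerevisiae BJ5465 were galactose-induced for 36–48 hours, stained 1 hour at 4 °C with 10% biotinylated, detergent-solubilized Sf9 membrane reagent and enriched on streptavidin microbeads. FACS then separated cells into low and high (top ~1%) gates by anti-HA (expression) and streptavidin (reagent binding) fluorescence. Genes were colony-PCR amplified, MiSeq 2 × 250 sequenced and CDR-length filtered. A clone's polyreactivity label is that of its gate of origin.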
Consider “QVQLVESGGGLVQAGGSLRLSCAASGSIFYRNTMGWYRQAPGKERELVASINTGTGTYYADSVKGRFTISRDNAKNTVYLQMNSLKPEDTAVYYCNSKGWVWPFPSYYPYDSWGQGTQVTVSS”, for which the “polyreactivity (PSR sort gate)” value was “high polyreactivity”. The entry for “QVQLVESGGGLVQAGGSLRLSCAASGSIFYRNTMGWYRQATGKERELVARISNGGSTNYADSVKGRFTISRDNAKNTVYLQMNSLKPEDTAVYYCNARRGSATHSVTARRGYWGQGTQVTVSS” is “high polyreactivity”.

For “QVQLVESGGGLVQAGGSLRLSCAASGSIFYRYAMGWSRQAPGKERELVAYISSGVSTNYADSVKGRFTISRDNAKKTVYLQMNSLKPEDTAVYYCAVRHSYTRAYWGRDFWGQGTQVTVSS”, the “polyreactivity (PSR sort gate)” value is “low polyreactivity”. Consider “QVQLVESGGGLVQAGGSLRLSCAASGSIFYRYAMGWYREAPGKERELVAAISSSGGSTYYADSVKGRFTISRDNAKNTVYSQMNSLKPEDTAVYYCNTDRYYTYDYWGQGTQVTVSS”, for which the “polyreactivity (PSR sort gate)” value is “low polyreactivity”. The entry for “QVQLVESGGGLVQAGGSLRLSCAASGSIFYRYAMGWYRQAPGKERELVAAITQSTDSTYYADSVKGRFTISRDNAKNTVYLQMNSLKPEDSAVYYCDAYLVYYRPYAYGYWGQGTQVTVSS” is “low polyreactivity”; for “QVQLVESGGGLVQAGGSLRLSCAASGSIFYRYARGWYRQAPGKERELVAAISYNGGRTYYADSVKGRFTISRDNAKNTVYLQMNSLKPEDTAVYYCNAAGRDDAYDYWGQGTQVTVSS” it is “high polyreactivity”.

In the case of “QVQLVESGGGLVQAGGSLRLSCAASGSIFYRYTMGWSRQAPGKERELVAAITYSGGSTYYADSVKGRFTISRDNAKNTVYLQMNSLIPEDTAVYYCNKDYYSGQSGYNYWGQGTQVTVSS”, the “polyreactivity (PSR sort gate)” value is on record as “low polyreactivity”. “QVQLVESGGGLVQAGGSLRLSCAASGSIFYRYTMGWYRQAPVTERELVAVISRRGGSTYYADSVKGRFTISRDNEKNTVYLQMNRLKPEDTAVYYCAVPQYRTSVRQGNTLWDDYWGQGTQVTVSS”: the “polyreactivity (PSR sort gate)” value is “high polyreactivity”. As for “QVQLVESGGGLVQAGGSLRLSCAASGSIFYRYTMGWYRQARGKERELVAAISSDGGSTYYADSVKGRFTISRDNAKKTVYLQMNSLKPEDTAVYYCAAGQDGHSDWGQGTQVTVSS”, the “polyreactivity (PSR sort gate)” value was “low polyreactivity”. The entry for “QVQLVESGGGLVQAGGSLRLSCAASGSIFYSNAMGWSRPAPGKEWELVAGITWTGGSTYYADSVKGRFTISRDNAKNTVYLQMNSLKPEYTEVYYCADRVYYRTVLGGYYYWGQGTQVTVSS” is “low polyreactivity”. On to “QVQLVESGGGLVQAGGSLRLSCAASGSIFYSNAMGWYRQAPGKEREFVAAISAGGGSTYYADSVKGRFTISRDHSKNTVYFQMNSLKPEDTAVYYCAKGPLPRAGVKFDYWGQGTQVTVSS”, for which the “polyreactivity (PSR sort gate)” value is on record as “low polyreactivity”. The entry for “QVQLVESGGGLVQAGGSLRLSCAASGSIFYSNAMGWYRQAPGKERELVAAISVSGVSTYYADSVKGRFTISRDNAKNTVYLQMNSLKPEDTAVYYCAADTGYRYDDYYWWGGEYDYWGQGTQVTVSS” is “low polyreactivity”; for “QVQLVESGGGLVQAGGSLRLSCAASGSIFYSYAMGRYRQAPGKERELVAAITKSSGSTYYADSVKGRFTISRDNAKNTVYLQMNSLKPEDTAVYYCAATRYRPVRLYYWGQGTQVTVSS” it is “high polyreactivity”; for “QVQLVESGGGLVQAGGSLRLSCAASGSIFYSYAMGWYRQAPGKEREFVAAISWSASRTYYADSVKGRFTISRDNAKNTVYLQMNSLKPADTAVYDCAARTYYNRGYYYWGQGTQVTVSS” it is “high polyreactivity”. As for “QVQLVESGGGLVQAGGSLRLSCAASGSIFYSYAMGWYRQAPGKERELVADITSSGGSTYYADSVKGRFTISRDNAKNTVYFQMNSLKPEDTAVYYCAASSPAFYGMRYNYWGHGTQVTVSS”, the “polyreactivity (PSR sort gate)” value was “low polyreactivity”. The entry for “QVQLVESGGGLVQAGGSLRLSCAASGSIFYTNAMGWYRQAPGKERELFASISRRGGSTYYADSVKGRFTISRDNAKNTVYLQMNSLKPEDTAVYYFATDGYTPYRWLWWLMDYWGQGTQVTVSS” is “high polyreactivity”; for “QVQLVESGGGLVQAGGSLRLSCAASGSIFYTNAMGWYRQAPGKERELVAAIRWSGGRTYYADSVKGRFTISRDNAKNSVYLQMNSLKPEDTAVYYCNKVPRTPIPYKYGYWGQGTQVTVSS” it is “high polyreactivity”; for “QVQLVESGGGLVQAGGSLRLSCAASGSIFYTNAMGWYRQAPGKERELVASIRTGGSTNYADSVKGRFTISRDNAKNTVYLQMNSLKPEDTAVYYCNADDPDYHGSIDDLDYDYWGQGTQVTVSS” it is “low polyreactivity”. The entry for “QVQLVESGGGLVQAGGSLRLSCAASGSIFYTYAMGWYRQAPGKERELVAAISWSDTTTYYAVSVKGRFTISRDSAKNTVYLQMNSLKPEDTAVYYFAADAYTNSYWYDYWGQGTQVTLSS” is “high polyreactivity”; for “QVQLVESGGGLVQAGGSLRLSCAASGSIFYTYAMGWYRQAPGKERELVAAITYRVGSTYYADSVKGRFTISRDNAKNTVYLQMNSLKPEDTAVYYCNADKGGHVRHYDYWGQGTQVTVSS” it is “low polyreactivity”; for “QVQLVESGGGLVQAGGSLRLSCAASGSIFYTYAMGWYRQAPGKERELVADISSRGGSTYYADSVKGRFTISRDNAKNTVYLQMNSLKPEDTAVYYCNAPQGFVWRYSSWGPYDYWGQGTQVTVSS” it is “high polyreactivity”. Regarding “QVQLVESGGGLVQAGGSLRLSCAASGSIFYTYVMGWYRQAPGKERELVAAISGTGGRTYYADSVKGRFTISRDNAKNTVYLQMTSLKPEDTAVYYCATRAYHKGFYRITYYYWGQGTQVTVSS”, the “polyreactivity (PSR sort gate)” value is “high polyreactivity”. The entry for “QVQLVESGGGLVQAGGSLRLSCAASGSIFYVNAMGWYRQAPGKEREFVADITWSSGGRTYYADSVKGRFTISRDNAKNTVYLQMNSLKPDDTAVYYCAAPRYYYYSYDYWGQGTQVTVSS” is “high polyreactivity”; for “QVQLVESGGGLVQAGGSLRLSCAASGSIFYVNAMGWYRQAPGKESELVAAISFSGGTTYYADSVKGRFTISRDNAKNTVYLQMNSLKPEDTAVYYCNTPSSREMDYWGQGTQVTVSS” it is “low polyreactivity”; for “QVQLVESGGGLVQAGGSLRLSCAASGSIFYVNTMGWYRQAPGKEREFVAAISGSGGSTRYADSVKGRFTISRDNAKNTVYLQMNSLKPEDTAVYYCAADRYTYIWYHIYDYWGQGTQVTVSS” it is “low polyreactivity”.

As to “QVQLVESGGGLVQAGGSLRLSCAASGSIFYVNTMGWYRQAPGKERELVAGITSRGGSTYYADSVKGRFTISRDNAKNTVYLQMNSLKPEDTAVYYCAKRAYGTALYRGYGYWGQGTQVTVSS”, the “polyreactivity (PSR sort gate)” value was “low polyreactivity”. For “QVQLVESGGGLVQAGGSLRLSCAASGSIFYVNTMGWYRQAPGKERELVAVIDYGGDSTYYADSVKGRFTISRDNAKNTVFLQMNSLKPEDTAVYYCAADAYESGNWEANGYWGQGTEVTVSS”, the “polyreactivity (PSR sort gate)” value was “low polyreactivity”. The entry for “QVQLVESGGGLVQAGGSLRLSCAASGSIFYVYAMGWYRQAPGKERELVAAISWRGGSTYYADSVKGRFTISRDIAKITVYLQMNSLKPEDTAVYYCNADWSFWGQGTQVTVSS” is “high polyreactivity”; for “QVQLVESGGGLVQAGGSLRLSCAASGSIFYVYAMGWYRQAPGKERELVAAITNYADSVMGRFTISRDNAKNTVYLQMNSLKPEDTAVYYCAADWWRVEMDYWGLGTQVTVSS” it is “low polyreactivity”; for “QVQLVESGGGLVQAGGSLRLSCAASGSIFYVYAMGWYRQAPGKERELVAAITSSGDTTYYADSVKGRFTISRDNAKNTVYLQMNSLKPEDTAVYYCAKVFGPTDYLTGTFKGDYWGQGTQVTVSS” it is “low polyreactivity”. On to “QVQLVESGGGLVQAGGSLRLSCAASGSIFYVYAMGWYRQAPGKERELVAAITWIDGSTYYADSVKGRFTISRDNAKNTVYLQMNSLKPEDTAVYYCAAGGYFYSFYYWGQGTQVTVSS”, for which the “polyreactivity (PSR sort gate)” value is recorded as “low polyreactivity”. The entry for “QVQLVESGGGLVQAGGSLRLSCAASGSIFYVYAMGWYRQAPGKERELVADITTRDGDTYYADSVKRRFTISRDNAKNTVYLQMNSLKPEDTAVYYCAADLNAYPLRAYDYWGQGTQVTVSS” is “low polyreactivity”; for “QVQLVESGGGLVQAGGSLRLSCAASGSIFYVYAMGWYRQAPGKVRELVAAITSSGTTNYADSVKGSFTISRDNAKNTVYLKMNSLKPEDTAVDSCAADPDSGQVPFDYLGQGTQVTVSS” it is “low polyreactivity”; for “QVQLVESGGGLVQAGGSLRLSCAASGSIFYVYAMGWYRQAPGKVRELVATISSSAGSTYYADSVKGRFTISRDNAKNTVYLQMNSLKPEDTAVYYCIADSFLSWVYRYVYYGSAYWGQGSQVTVSS” it is “low polyreactivity”. The entry for “QVQLVESGGGLVQAGGSLRLSCAASGSIFYVYAMGWYRQAPGNERELVAVIRRGGSTKYADSVKGRFTISRDNAKNTVYLQMNSLKPEDTAVYYCNVVGYAYGWQYDYWGQGTQVTVSS” is “high polyreactivity”; for “QVQLVESGGGLVQAGGSLRLSCAASGSIFYWNAMGWYRQAPGKDREFVAAISRSGGSTYYADSVKGRFTISRDNGKNTVYLQMYSLKPEDTAVYFCAADVFYFTYDYWGQCTQVTVSS” it is “low polyreactivity”. Consider “QVQLVESGGGLVQAGGSLRLSCAASGSIFYWNAMGWYRQAPGKERELVAAISYNGGSTYYADSVKGRFTISRDNAKNTVYLQMNSLKPEDTAVYYCARLDSAAEPRQYDYWGQGTQVTVSS”, for which the “polyreactivity (PSR sort gate)” value is on record as “high polyreactivity”.

In the case of “QVQLVESGGGLVQAGGSLRLSCAASGSIFYYAMGWYRQAPGKERELVAAITWRGGRTYYADSVKGRFTISRDNAKNTVYLQMNSLKPEDTAVYYCNAVAPGKYNHWGQGTQVTVSS”, the “polyreactivity (PSR sort gate)” value was “high polyreactivity”. As for “QVQLVESGGGLVQAGGSLRLSCAASGSIFYYNAMGWNRQAPGKERELVAASTTRGGSTYYADSVKGRFTISRDNAKNTVYLQMYSLKPVDTEVYYCARSSRGKLDYWGQGTQVTVSS”, the “polyreactivity (PSR sort gate)” value is “low polyreactivity”.

Turning to “QVQLVESGGGLVQAGGSLRLSCAASGSIFYYNAMGWSRQAPGKERELVAAIRSTGSSNDADSVKGRFTISRDNAKNTVYLQMNSLKPEDTAVYYCAADQYGRSRDYGYGYWGHGTQVTVSS”, the “polyreactivity (PSR sort gate)” value is recorded as “low polyreactivity”. Turning to “QVQLVESGGGLVQAGGSLRLSCAASGSIFYYNAMGWYIQAPGKEREFVAAISSSGGSTYYADSVMGRFTISRDNAKNNVYLQMYRLKPEDTAVYYCAAKLRHWAHHTKYDYWGQGTQLTVSS”, the “polyreactivity (PSR sort gate)” value is listed as “low polyreactivity”.
